In patent publication US20040253577A1 (SCHERING, published 2004):

Molecular target: the molecule itself
Experiment: size exclusion chromatography (Superdex 75), self-association

B1: HCV NS3 helicase subdomain I (181-324,R257E) mutant (enzyme)
chain: SPVFTDNSSPPAVPQSFQVAHLHAPTGSGKSTKVPAAYAAQGYKVLVLNPSVAATLGFGAYMSKAHGVDPNIRTGVETITTGSPITYSTYGKFLADGGCSGGAYDIIICDECHSTDATSILGIGTVLDQAETAGARLVVLATAT
notes: also called subdomain I mutant; product of pNS3(181-324,R257E)
binding result: no binding (tested: 6 mg/ml)
